Source: the supplement of paper PMC10065799, “High-throughput profiling of sequence recognition by tyrosine kinases and SH2 domains using bacterial peptide display” (eLife, 2023)

Columns and labels:
SHP2-C SH2 = assay: SH2 binding enrichment of the phosphorylated peptide, bacterial display (enrichment ratio); higher = better substrate or ligand; peptides without Tyr show the background
c-Src SH2 = assay: as above
Grb2 SH2 = Grb2 SH2 (UniProt P62993); assay: as above
Jak2 = Jak2 (UniProt O60674); assay: phosphorylation enrichment, bacterial display (enrichment ratio); higher = better substrate or ligand; peptides without Tyr show the background
MERTK = MERTK (UniProt Q12866); assay: as above
EPHB2 = EPHB2 (UniProt P29323); assay: as above
c-Src = assay: as above
Fyn = Fyn (UniProt P06241); assay: as above
Fes = Fes (UniProt P07332); assay: as above
EPHB1 = EPHB1 (UniProt P54762); assay: as above
Fer (mouse) = assay: as above
AncSZ = assay: as above
FGFR3 = FGFR3 (UniProt P22607); assay: as above
Hck = Hck (UniProt P08631); assay: as above
c-Abl (mouse) = assay: as above
FGFR1 = FGFR1 (UniProt P11362); assay: as above
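Wherever SH2 binding enrichment of the phosphorylated peptide, bacterial display is given: peptide library displayed on the E. coli surface as eCPX fusions, selected cells deep-sequenced, score is each peptide's frequency after selection divided by its frequency in the input.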
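Wherever phosphorylation enrichment, bacterial display is given: 11-residue human phosphosite peptides and single-mutation variants displayed on the E. coli surface, counted by deep sequencing, each peptide's frequency after selection divided by its frequency in the unselected input library; frequency after pTyr selection over input frequency; kinase dosed for 20-30% of maximal phosphorylation in three min.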

Sequence of Fyn (P06241 whole entry, looked up): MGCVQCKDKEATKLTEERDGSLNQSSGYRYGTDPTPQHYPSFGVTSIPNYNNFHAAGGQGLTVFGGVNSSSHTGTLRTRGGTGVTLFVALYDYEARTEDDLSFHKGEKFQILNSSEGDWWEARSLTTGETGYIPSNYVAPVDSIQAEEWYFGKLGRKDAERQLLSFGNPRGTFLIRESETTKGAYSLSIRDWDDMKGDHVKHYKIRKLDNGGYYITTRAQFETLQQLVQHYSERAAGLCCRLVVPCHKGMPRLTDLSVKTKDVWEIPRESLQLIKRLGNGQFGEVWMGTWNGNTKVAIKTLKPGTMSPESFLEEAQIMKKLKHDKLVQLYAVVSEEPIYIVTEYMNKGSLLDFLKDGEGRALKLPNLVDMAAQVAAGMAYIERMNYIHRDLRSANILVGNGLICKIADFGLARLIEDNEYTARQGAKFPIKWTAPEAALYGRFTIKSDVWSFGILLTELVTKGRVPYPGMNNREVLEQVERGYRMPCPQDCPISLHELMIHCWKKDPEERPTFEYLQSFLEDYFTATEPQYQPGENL
Sequence of FGFR3 (P22607 whole entry, looked up): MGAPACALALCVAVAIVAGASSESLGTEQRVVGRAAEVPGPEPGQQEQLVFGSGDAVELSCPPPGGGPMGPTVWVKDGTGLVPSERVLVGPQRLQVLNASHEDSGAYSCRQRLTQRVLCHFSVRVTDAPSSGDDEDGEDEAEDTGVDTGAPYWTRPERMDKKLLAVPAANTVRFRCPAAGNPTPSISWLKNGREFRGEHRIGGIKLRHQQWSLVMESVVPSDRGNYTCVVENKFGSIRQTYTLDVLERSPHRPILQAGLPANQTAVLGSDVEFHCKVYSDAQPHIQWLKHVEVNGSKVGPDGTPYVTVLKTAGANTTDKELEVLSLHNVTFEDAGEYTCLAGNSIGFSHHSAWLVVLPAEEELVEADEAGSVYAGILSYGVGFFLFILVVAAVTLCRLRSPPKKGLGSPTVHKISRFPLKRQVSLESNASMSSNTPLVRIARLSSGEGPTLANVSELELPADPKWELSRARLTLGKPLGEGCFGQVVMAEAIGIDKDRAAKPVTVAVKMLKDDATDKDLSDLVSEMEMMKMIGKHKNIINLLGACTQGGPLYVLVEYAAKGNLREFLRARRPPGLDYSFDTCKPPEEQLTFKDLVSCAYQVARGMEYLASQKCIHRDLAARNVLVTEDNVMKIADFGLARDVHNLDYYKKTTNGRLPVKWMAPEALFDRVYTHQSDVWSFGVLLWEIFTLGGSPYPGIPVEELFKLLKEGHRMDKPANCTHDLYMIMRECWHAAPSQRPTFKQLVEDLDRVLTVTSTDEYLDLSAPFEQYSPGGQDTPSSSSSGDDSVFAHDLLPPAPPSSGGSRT
Sequence of MERTK (Q12866 whole entry, looked up): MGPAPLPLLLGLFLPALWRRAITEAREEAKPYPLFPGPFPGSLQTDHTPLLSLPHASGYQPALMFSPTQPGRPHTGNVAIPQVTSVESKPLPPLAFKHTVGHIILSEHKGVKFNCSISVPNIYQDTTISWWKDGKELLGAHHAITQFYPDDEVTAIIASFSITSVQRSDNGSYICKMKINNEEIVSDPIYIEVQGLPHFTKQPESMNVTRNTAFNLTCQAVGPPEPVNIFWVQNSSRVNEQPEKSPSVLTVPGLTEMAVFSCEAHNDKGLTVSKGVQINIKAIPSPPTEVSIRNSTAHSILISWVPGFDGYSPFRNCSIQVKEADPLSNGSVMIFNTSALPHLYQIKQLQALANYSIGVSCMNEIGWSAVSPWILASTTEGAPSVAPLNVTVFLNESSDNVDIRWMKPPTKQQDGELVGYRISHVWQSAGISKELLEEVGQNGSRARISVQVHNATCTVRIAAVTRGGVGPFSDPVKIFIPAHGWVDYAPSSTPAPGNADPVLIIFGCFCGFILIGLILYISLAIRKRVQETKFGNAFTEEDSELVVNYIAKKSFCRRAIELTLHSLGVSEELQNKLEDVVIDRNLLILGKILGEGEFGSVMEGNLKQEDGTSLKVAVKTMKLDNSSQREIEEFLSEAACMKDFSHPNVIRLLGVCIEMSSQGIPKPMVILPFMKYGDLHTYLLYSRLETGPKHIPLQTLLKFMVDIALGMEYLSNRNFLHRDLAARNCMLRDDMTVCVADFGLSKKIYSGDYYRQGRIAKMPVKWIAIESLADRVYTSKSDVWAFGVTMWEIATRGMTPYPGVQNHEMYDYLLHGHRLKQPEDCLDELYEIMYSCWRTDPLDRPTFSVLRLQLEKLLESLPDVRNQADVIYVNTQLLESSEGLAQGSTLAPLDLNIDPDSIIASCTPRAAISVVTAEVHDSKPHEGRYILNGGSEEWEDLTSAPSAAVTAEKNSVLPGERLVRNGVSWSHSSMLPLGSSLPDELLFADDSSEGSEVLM
Sequence of Hck (P08631 whole entry, looked up): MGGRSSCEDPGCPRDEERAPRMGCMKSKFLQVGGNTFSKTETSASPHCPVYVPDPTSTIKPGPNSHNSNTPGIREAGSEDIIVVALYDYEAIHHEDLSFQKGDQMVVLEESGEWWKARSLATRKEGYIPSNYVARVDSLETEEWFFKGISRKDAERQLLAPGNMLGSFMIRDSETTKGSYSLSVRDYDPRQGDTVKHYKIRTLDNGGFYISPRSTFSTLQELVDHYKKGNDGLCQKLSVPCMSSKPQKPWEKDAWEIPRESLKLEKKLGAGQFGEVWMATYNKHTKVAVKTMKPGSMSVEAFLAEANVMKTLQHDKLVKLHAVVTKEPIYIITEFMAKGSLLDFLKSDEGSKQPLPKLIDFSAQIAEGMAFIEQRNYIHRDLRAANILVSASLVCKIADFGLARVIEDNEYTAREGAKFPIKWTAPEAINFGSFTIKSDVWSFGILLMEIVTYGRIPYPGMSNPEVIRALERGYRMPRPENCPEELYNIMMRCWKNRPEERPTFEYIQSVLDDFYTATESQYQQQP
Sequence of Grb2 SH2 (P62993 whole entry, looked up): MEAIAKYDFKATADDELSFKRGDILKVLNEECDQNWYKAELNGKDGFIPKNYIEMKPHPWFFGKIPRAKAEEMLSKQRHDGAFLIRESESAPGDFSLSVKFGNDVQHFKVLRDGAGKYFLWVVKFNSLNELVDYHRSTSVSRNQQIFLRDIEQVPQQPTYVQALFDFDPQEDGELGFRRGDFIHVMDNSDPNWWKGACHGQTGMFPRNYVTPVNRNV
Sequence of EPHB2 (P29323 whole entry, looked up): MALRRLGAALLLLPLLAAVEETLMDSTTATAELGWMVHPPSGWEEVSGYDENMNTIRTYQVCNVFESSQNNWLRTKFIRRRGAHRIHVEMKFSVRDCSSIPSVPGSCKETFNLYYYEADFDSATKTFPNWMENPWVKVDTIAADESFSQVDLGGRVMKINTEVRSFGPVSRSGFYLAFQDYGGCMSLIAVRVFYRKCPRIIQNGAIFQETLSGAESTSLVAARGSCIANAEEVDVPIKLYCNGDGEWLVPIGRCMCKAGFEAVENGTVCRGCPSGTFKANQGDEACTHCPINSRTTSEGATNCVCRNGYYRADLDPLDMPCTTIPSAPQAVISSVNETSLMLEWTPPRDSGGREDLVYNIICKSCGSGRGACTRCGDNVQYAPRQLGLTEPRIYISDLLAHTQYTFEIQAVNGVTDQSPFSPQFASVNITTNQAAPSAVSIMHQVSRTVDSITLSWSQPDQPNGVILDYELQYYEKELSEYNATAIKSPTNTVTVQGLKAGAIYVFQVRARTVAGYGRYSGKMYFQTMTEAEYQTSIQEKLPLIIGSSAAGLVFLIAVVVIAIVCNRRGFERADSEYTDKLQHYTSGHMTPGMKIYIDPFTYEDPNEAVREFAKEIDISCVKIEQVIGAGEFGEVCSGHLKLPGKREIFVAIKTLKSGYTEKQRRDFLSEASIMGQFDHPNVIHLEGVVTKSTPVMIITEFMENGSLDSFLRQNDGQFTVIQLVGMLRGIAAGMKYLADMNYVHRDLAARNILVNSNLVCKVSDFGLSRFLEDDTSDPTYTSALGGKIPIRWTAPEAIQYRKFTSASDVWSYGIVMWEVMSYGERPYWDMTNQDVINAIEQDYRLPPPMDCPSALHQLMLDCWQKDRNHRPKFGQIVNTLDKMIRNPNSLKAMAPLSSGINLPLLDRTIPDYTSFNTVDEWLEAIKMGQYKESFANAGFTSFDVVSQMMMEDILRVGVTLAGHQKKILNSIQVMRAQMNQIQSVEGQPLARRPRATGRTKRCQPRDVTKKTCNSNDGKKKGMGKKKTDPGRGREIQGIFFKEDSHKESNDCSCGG
Sequence of Fes (P07332 whole entry, looked up): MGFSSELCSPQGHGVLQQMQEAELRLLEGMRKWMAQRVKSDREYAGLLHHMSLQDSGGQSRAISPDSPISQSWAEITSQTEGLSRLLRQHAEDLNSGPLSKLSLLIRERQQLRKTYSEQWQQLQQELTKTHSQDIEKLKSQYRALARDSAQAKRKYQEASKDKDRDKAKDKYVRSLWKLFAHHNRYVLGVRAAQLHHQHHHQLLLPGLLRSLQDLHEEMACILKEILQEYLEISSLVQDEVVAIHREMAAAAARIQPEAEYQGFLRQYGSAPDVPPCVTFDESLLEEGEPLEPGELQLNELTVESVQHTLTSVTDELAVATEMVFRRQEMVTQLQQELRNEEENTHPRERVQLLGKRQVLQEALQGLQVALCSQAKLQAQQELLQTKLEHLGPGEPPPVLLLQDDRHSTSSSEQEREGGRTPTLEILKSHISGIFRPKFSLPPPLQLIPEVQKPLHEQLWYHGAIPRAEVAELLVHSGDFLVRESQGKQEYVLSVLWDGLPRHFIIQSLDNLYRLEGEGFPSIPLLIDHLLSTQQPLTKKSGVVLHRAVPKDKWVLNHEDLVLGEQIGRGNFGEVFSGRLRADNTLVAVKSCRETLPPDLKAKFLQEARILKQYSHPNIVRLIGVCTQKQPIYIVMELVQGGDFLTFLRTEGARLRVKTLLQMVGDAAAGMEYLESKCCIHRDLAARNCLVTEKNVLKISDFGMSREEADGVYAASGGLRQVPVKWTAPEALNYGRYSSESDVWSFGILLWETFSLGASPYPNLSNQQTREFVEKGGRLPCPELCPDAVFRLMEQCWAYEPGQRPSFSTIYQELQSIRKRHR

Sequence | SH2 binding enrichment (SHP2-C SH2) | SH2 binding enrichment (c-Src SH2) | SH2 binding enrichment (Grb2 SH2) | phosphorylation enrichment (Jak2) | phosphorylation enrichment (MERTK) | phosphorylation enrichment (EPHB2) | phosphorylation enrichment (c-Src) | phosphorylation enrichment (Fyn) | phosphorylation enrichment (Fes) | phosphorylation enrichment (EPHB1) | phosphorylation enrichment (Fer (mouse)) | phosphorylation enrichment (AncSZ) | phosphorylation enrichment (FGFR3) | phosphorylation enrichment (Hck) | phosphorylation enrichment (c-Abl (mouse)) | phosphorylation enrichment (FGFR1)
GKTFTYRSVFF [ZNF80_Y200] | 0.965 | 0.575 | 0.878 | 0.744 | 0.42 | 0.466 | 0.412 | 0.43 | 0.951 | 0.464 | 0.457 | 0.809 | 0.562 | 0.374 | 0.693 | 0.388
GLAELYEYKKK [CKAP5_Y1854] | 1.31 | 0.671 | 1.26 | 0.393 | 0.303 | 0.397 | 0.489 | 0.569 | 0.719 | 0.479 | 0.32 | 0.671 | 0.546 | 0.924 | 0.464 | 0.7
GLAKEYIDPET [CSNK1G2_Y195] | 0.967 | 0.448 | 0.942 | 0.904 | 0.4 | 0.462 | 0.454 | 0.494 | 0.941 | 0.527 | 0.509 | 0.743 | 0.604 | 0.449 | 0.592 | 0.544
GLGGGCGGASG [KRT8_Y54_Y54C] | 0.712 | 0.525 | 0.944 | 0.508 | 0.384 | 0.499 | 0.404 | 0.433 | 0.817 | 0.465 | 0.449 | 0.582 | 0.544 | 0.505 | 0.444 | 0.494
GPIIRYDLGGA [CYP11B1_Y81_F79I] | 0.851 | 0.495 | 0.645 | 0.626 | 0.477 | 0.366 | 0.405 | 0.412 | 0.723 | 0.585 | 0.396 | 0.648 | 0.498 | 0.384 | 0.518 | 0.617
GPTLSYGRDGR [MATR3_Y158] | 0.739 | 0.532 | 0.692 | 0.449 | 0.488 | 0.347 | 0.332 | 0.33 | 0.526 | 0.276 | 0.306 | 0.435 | 0.377 | 0.379 | 0.369 | 0.363
GQECKYPPTQD [METAP2_Y137_E136K] | 0.689 | 0.63 | 1.04 | 1.03 | 0.553 | 0.507 | 0.504 | 0.515 | 1.14 | 0.521 | 0.511 | 0.86 | 0.638 | 0.52 | 0.727 | 0.569
GRFCGYKSKHG [EPHA3_Y570] | 1.49 | 1.43 | 1.32 | 0.726 | 0.376 | 0.368 | 0.363 | 0.321 | 0.664 | 0.506 | 0.426 | 0.469 | 0.638 | 0.377 | 0.587 | 0.374
GRTNIYKNKKD [SLC26A3_Y520] | 0.832 | 0.802 | 1.07 | 0.66 | 0.43 | 0.393 | 0.434 | 0.308 | 0.648 | 0.415 | 0.349 | 0.467 | 0.475 | 0.447 | 0.721 | 0.369
GSCQEYTGAPY [NAXD_Y85_G81S] | 0.764 | 0.825 | 0.799 | 0.805 | 0.432 | 0.537 | 0.505 | 0.441 | 0.894 | 0.573 | 0.494 | 1.14 | 0.7 | 0.545 | 0.668 | 0.558
GSSKIYFLHAD [TLR5_Y108_P112A] | 1.19 | 0.833 | 1.12 | 0.954 | 0.797 | 0.557 | 0.893 | 0.951 | 0.984 | 0.492 | 0.423 | 0.862 | 0.731 | 0.712 | 0.579 | 0.8
GSTLSYFGLAA [P2RX7_Y343] | 0.962 | 0.646 | 1.14 | 6.12 | 0.892 | 0.621 | 0.629 | 0.571 | 1.11 | 0.483 | 0.43 | 0.725 | 1.6 | 0.63 | 0.525 | 1.83
GTATTYLCGVK [ALPL_Y117_A116T] | 1.15 | 0.483 | 0.67 | 0.946 | 0.493 | 0.8 | 0.472 | 0.479 | 1.13 | 0.5 | 0.495 | 0.914 | 0.758 | 0.582 | 0.811 | 0.595
GVKLTYGDAQN [SLC28A1_Y404] | 0.54 | 0.472 | 0.969 | 1.63 | 0.397 | 0.45 | 0.499 | 0.479 | 0.872 | 0.379 | 0.397 | 0.726 | 0.473 | 0.369 | 0.813 | 0.53
GVLKEYVVKVL [CPS1_Y529_G530V] | 0.748 | 0.479 | 0.949 | 0.814 | 0.32 | 0.491 | 0.355 | 0.389 | 1.06 | 0.477 | 0.384 | 0.989 | 0.546 | 0.386 | 0.67 | 0.383
